These results are taken from patent US20220235344A1, “TRYPSIN VARIANTS WITH IMPROVED ENZYMATIC PROPERTIES” (BIOPHARMA TRANSLATIONSINSTITUT DESSAU FORSCHUNGS GMBH, priority 2018, published 2022).

Data set [1] concerns Bz-PGGYRKKAG-OH (acyl donor) / H-RKKAK-OH (acyl acceptor). Nature of the data set: Model transamidation at high and low substrate concentrations, A2C8 and K7F11. Format: biochemical. The conditions noted are these: for product yield (%) / kcat, AL^app (mkat/mol) / kcat, AL^app/kcat, HL^app / kcat, HL^app (mkat/mol): no ZnCl2. The procedure: Model transamidation reactions were performed in a solution containing 15 to 250 μM acyl donor, 2 eq. of the corresponding acyl acceptor, varying concentrations of trypsin variant, 100 mM HEPES/NaOH pH 7.8, ±0.1 mM ZnC12, 100 mM NaCl, 10 mM CaCl2) at 30° C. Acyl donor and acyl acceptor had the same amino acids in P1′-P3′ position, e.g. Bz-[…]+H-RAHAK-OH or Bz-[…]+H-RKKAK-OH. Variations are indicated. The acyl acceptor could be equipped with a 2,4-Dinitrophenyl group (DNP) at the side chain of the terminal lysine, e.g. H-RAHAK(DNP)-OH or H-RKKAK(DNP)-OH. The reactions were started by the addition of enzyme. To record the time course of product formation and/or for kinetic evaluation of the reaction several aliquots of the reaction mixture were quenched with 25% (v/v) acetic acid at distinct time points within up to 4 hours. The composition of the reaction mixture was analyzed by UPCL with method I or II, depending on the absence (method 1) or presence (method II) of a 2,4-dinitrophenyl group within the acyl acceptor (see example 1). Measurements were performed as duplicates and errors were less than 5%.
The suitability of variant A2C8 and K7F11 as transamidases was further investigated in comparison to the native Trypsiligase II. Therefore the enzymatic parameters for the catalyzed transamidation reaction were determined by a model transamidation reaction using peptide substrates with the preferred recognition motive. In addition the model transamidation reaction was performed at high (250 μM) and low (15 μM) substrate concentrations to check, whether the new biocatalysts could also efficiently catalyze the desired reaction at low substrate concentration, which is a crucial requirement for the modification of therapeutic proteins. […] It was assumed that an improved transamidation activity is reached by introducing mutations which improve the affinity of the biocatalyst for the nucleophilic peptide and/or reduce its hydrolysis activity. Therefore corresponding experimental data describing both parameters for the native Trypsiligase II as well as variant A2C8 were determined.

Data set [2] relates to Bz-PGGXaaXaaXaaXaaAG-OH (acyl donor) / H-XaaXaaXaaAK(DNP)-OH (acyl acceptor). Nature of the data set: Substrate specificity of variants (FIG. 2, FIG. 4). It is filed as biochemical. The procedure:
FIG. 2: Substrate specificity data of chosen variants identified during phage-display selection and screening out of Trypsiligase II-library. 100 μM acyl donor (Bz-PGGXaaXaaXaaXaaAG-OH); 200 μM acyl acceptor (H-XaaXaaXaaAK(DNP)-OH); 1-5 μM enzyme variant; 100 mM HEPES pH7.8, 100 mM NaCl, 10 mM CaCl2, 0.1 mM ZnCl2, T=30° C. UPLC analysis: Waters Acquity Ultra Performance LC, C18-column, gradient 5-60% acetonitrile, 5 min, detection at 360 nm; (k_(cat,AL)^app): apparent turnover rate for the aminolysis reaction. Amino acid variation of acyl donor/acyl acceptor pairs at Xaa-positions are indicated at the y-axis, e.g. YRAH relates to the acyl donor Bz-[…]-OH with the corresponding acyl acceptor H-RAHAK(DNP)-OH.
FIG. 4: Substrate specificity data of chosen variants identified during phage-display selection and screening out of Trypsiligase II-library. […]
Model transamidation reactions were performed in a solution containing 15 to 250 μM acyl donor, 2 eq. of the corresponding acyl acceptor, varying concentrations of trypsin variant, 100 mM HEPES/NaOH pH 7.8, ±0.1 mM ZnC12, 100 mM NaCl, 10 mM CaCl2) at 30° C. […] The composition of the reaction mixture was analyzed by UPCL with method I or II, depending on the absence (method 1) or presence (method II) of a 2,4-dinitrophenyl group within the acyl acceptor (see example 1). […]

Setting [3] is: low substrate concentration (15 μM).

Values joined by “and” are separate entries in the source; they are usually repeats but may differ in a detail not shown here. Equal values may be shown once.

B1: A2C8: Trypsiligase II + H40F, A55A, R96E, K97D, L99F, N143E, E151Y, S190V, Q192A, S214G, G219Q, A221T (protein)
chain: IVGGYTCQENSVPYQVSLNSGHFFCGGSLINDQWVVSAAHCHESRIQVRLGEHNINVLEGNEQFVNAAKIIKHPNFDEDTFNNDIMLIKLSSPVKLNARVATVALPSSCAPAGTQCLISGWGETLSSGVNYPDLLQCLDAPLLPQADCEASYPGKITDNMVCVGFLEGGKKVCAGDSGGPVVCNGELQGIVGWGYQCTLPDNPGVYTKVCNYVDWIQDTIAAN
Consider B1, for which the “product yield (%)” value in data set [1] ([Substrate] 15 μM Bz-PGGYRKKAG-OH, 30 μM H-RKKAK-OH) was 46% and 46.2%. Moreover, in data set [1] ([Substrate] 15 μM), the “kcat, AL^app (mkat/mol)” value was 10.68 mkat/mol; the “kcat, AL^app/kcat, HL^app” value is listed as 7.4; the “kcat, HL^app (mkat/mol)” value amounted to 1.44 mkat/mol. For the same molecule, in data set [1] ([Substrate] 250 μM Bz-PGGYRKKAG-OH, 500 μM H-RKKAK-OH), the “product yield (%)” value is on record as 64.9%. Also, in data set [1] ([Substrate] 250 μM), the “kcat, AL^app (mkat/mol)” value was found to be 71.61 mkat/mol; the “kcat, AL^app/kcat, HL^app” value is 70 and 70.9; the “kcat, HL^app (mkat/mol)” value amounted to 1.01 mkat/mol. Besides, in data set [1] (setting [3]), the “apparent turnover rate of aminolysis relative to hydrolysis” value was “sevenfold higher apparent turnover rate” and the “fold higher product yield than the native Trypsiligase II” value stood at 14. Further, in data set [2], the “acceptance of LRKH as acyl donor” value is listed as “accepts LRKH as acyl donor” and the “substrate sequence with highest activity” value is on record as “highest activity for YRKK substrate sequence”.
